Reference: paper PMC5902045, “Degenerate Pax2 and Senseless binding motifs improve detection of low-affinity sites required for enhancer specificity”

Assays:
[1] = molecular target: Pax2 (UniProt Q8IM96 175-301); experiment: EMSA; Native PAGE EMSA, probe 0.36 uM, LI-COR imaging; protein amounts in ng; buffer, salt, pH and temperature not given (cited to refs 43, 64); details: protein: recombinant; tags: His
[2] = molecular target: Senseless (Sens) (UniProt Q9N658 413-520); experiment: as above; details: protein: recombinant; tags: His
Senseless (Sens), sequence (Q9N658 413-520): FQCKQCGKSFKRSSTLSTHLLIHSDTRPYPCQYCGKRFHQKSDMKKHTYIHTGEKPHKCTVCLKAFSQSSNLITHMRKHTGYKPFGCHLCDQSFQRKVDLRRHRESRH

Pax2, sequence (Q8IM96 entry or part of it): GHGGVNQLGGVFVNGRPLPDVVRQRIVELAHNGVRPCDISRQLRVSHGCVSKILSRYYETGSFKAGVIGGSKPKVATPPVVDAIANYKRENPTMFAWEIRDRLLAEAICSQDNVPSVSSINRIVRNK

Row | Binder | binding result [1] | binding result [2]
1 | RhoA-WT (dsDNA) DNA 1: TCGTTGCAGTTCATTGATTGACATTTTTATTATGCATATTCGCTGGT DNA 2: ACCAGCGAATATGCATAATAAAAATGTCAATCAATGAACTGCAACGA | binds | binds
2 | RhoA-PSSS (strong Pax2 and Sens sites) (dsDNA) DNA 1: TCGTCACGGTGCACTGATTGACATTTTTATTATGCATATTCGCTGGT DNA 2: ACCAGCGAATATGCATAATAAAAATGTCAATCAGTGCACCGTGACGA | binds | binds
3 | RhoA-SS (strong Sens site) (dsDNA) DNA 1: TCGTTGCAGTGCACTGATTGACATTTTTATTATGCATATTCGCTGGT DNA 2: ACCAGCGAATATGCATAATAAAAATGTCAATCAGTGCACTGCAACGA | – | binds
4 | RhoA-PS (strong Pax2 site) (dsDNA) DNA 1: TCGTCACGGTTCATTGATTGACATTTTTATTATGCATATTCGCTGGT DNA 2: ACCAGCGAATATGCATAATAAAAATGTCAATCAATGAACCGTGACGA | binds | binds
5 | RhoA-SM (Sens site mutant) (dsDNA) DNA 1: TCGTTGCAGTTGGTTGATTGACATTTTTATTATGCATATTCGCTGGT DNA 2: ACCAGCGAATATGCATAATAAAAATGTCAATCAACCAACTGCAACGA | – | no binding
6 | RhoA-PM (Pax2 site mutant) (dsDNA) DNA 1: TCGGGTCAGTTCATTGATTGACATTTTTATTATGCATATTCGCTGGT DNA 2: ACCAGCGAATATGCATAATAAAAATGTCAATCAATGAACTGACCCGA | – | binds
7 | RhoA-SM/SM (dsDNA) DNA 1: TCGTTGCAGTTGGTTGATTGACATTTTTATTATGCATGGTTGATTGA DNA 2: TCAATCAACCATGCATAATAAAAATGTCAATCAACCAACTGCAACGA | – | no binding
8 | RhoA-SM/SWT (dsDNA) DNA 1: TCGTTGCAGTTGGTTGATTGACATTTTTATTATGCATCATTGATTGA DNA 2: TCAATCAATGATGCATAATAAAAATGTCAATCAACCAACTGCAACGA | – | binds
9 | RhoA-SM/SS (dsDNA) DNA 1: TCGTTGCAGTTGGTTGATTGACATTTTTATTATGCAGCACTGATTGA DNA 2: TCAATCAGTGCTGCATAATAAAAATGTCAATCAACCAACTGCAACGA | – | binds
